Experimental data published in patent US20160289340A1 (published 2016).
Changes are numbered by the printed parent chain.

B1: 3rd humanized MC41 IgG (antibody, V domains shown)
VH: QVQLKESGPGLVAPSKTLSLTCTVSGFSLSSQGVYWIRQPPGKGLEWIGAIWAGGSTNYNSALMSRLSISKDNSKSQVFLKMNSLQTDDTAMYYCARVDGYRGYNMDYWGQGTSVTVSS
VL: ENVLTQSPAIMSATPGEKVTMTCSASSSVSYMHWYQQKSSTSPKLWIYDTSKLASGVPGRFSGSGSGNSYTLTISSMEAEDVATYYCFQGSGYPLTFGAGTKLEIKR
notes: also called humanized 3rd MC41
B2: chimeric MC41 (chMC41) (antibody, V domains shown)
VH: B1 VH with T17S, L20I, I37V, I48L
VL: B1 VL with T14S, T71S, I105L
notes: Intact chimeric IgG of MC41
B3: 2nd humanized MC41 IgG (antibody, V domains shown)
VH: B1 VH with S114L
VL: B1 VL with M32L
notes: also called hMC41; humanized 2nd MC41
B4: 3rd scFv phage clone of humanized MC48 variant (scFv)
scFv: QVQLQESGPGLVKPSETLSLTCTVSGFSLTSYGVSWIRQPPGKGLEWIGVIWGEGSTNYHSVLISRLTISKDNSKSQVFLKLNSLQTDDTATYYCAMTGTAYWGQGTLVTVSSGGGGSGGGGSGGGGSQIVLTQSPAIMSASPGEKVTMTCSASSSVSYMHWYQQKPGLAPRLLIYDTSKLSSGVPGRFSGSGSGTSYSLTISRLEAEDAATYYCHQWSSSPHTFGGGTKVEIKR
notes: also called 3rd humanized MC48 scFv phage; hMC48 (3rd)
B5: 4th scFv phage clone of humanized MC48 variant (scFv)
scFv: QVQLKESGPGLVAPSQSLSITCTVSGFSLTSYGVSWIRQPPGKGLEWIGVIWGEGSTNYHSVLISRLTISKDNSKSQVFLKLNSLQTDDTATYYCAMTGTAYWGQGTLVTVSSGGGGSGGGGSGGGGSQIVLTQSPAIMSASPGEKVTMTCSASSSVSYMHWYQQKSGTSPKRWIYDTSKLSSGVPGRFSGSGSGTSYSLTISRLEAEDAATYYCHQWSSSPHTFGGGTKVEIKR
notes: also called 4th humanized MC48 scFv phage; hMC48 (4th)

What was measured:
[1] = target: T1, BSA control protein (bovine, UniProt P02769 25-607); experiment: ELISA, serially diluted IgG on coated BSA, anti-human IgG-HRP
T1 construct: Unconjugated BSA used as negative control coating next to SSEA-4-BSA glycoconjugate; also called bovine serum albumin

[2] = target: T1, BSA control protein; experiment: phage ELISA, serially diluted phage on coated BSA

T1 sequence (P02769 25-607 limits assumed): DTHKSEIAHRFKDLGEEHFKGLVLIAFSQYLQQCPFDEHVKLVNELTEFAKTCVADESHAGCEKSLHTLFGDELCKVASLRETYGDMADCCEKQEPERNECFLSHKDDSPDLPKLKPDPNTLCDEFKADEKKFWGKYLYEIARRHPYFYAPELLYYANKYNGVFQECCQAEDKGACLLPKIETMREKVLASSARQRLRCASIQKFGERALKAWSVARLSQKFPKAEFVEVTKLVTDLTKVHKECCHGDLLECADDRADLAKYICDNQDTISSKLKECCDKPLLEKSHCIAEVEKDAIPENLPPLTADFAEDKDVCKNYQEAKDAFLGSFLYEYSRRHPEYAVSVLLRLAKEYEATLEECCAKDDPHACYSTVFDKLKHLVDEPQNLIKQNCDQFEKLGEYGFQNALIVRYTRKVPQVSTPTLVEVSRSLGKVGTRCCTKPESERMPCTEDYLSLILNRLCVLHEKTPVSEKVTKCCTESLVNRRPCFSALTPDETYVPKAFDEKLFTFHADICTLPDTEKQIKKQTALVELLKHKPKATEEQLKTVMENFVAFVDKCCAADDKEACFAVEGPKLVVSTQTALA

Binder | binding result [1] | binding result [2]
B1 | no binding | 
B2 | no binding | 
B3 | no binding | 
B4 |  | no binding
B5 |  | no binding
